Among the data in article PMC8091058, “Distinct intramolecular interactions regulate autoinhibition of vinculin binding in αT-catenin and αE-catenin” (The Journal of Biological Chemistry, 2021) are Kd and dH values, retold here.

Common to all, as to details: both partners purified
The target of one assay is T1, vinculin D1 (aa 1–259) (UniProt P12003 1-259).
T1 construct: vinculin D1 fragment, aa 1-259, the first 2 four-helix bundles; in pGEX-TEV; also called vinculin aa 1 to 259 (D1); vinculin N-terminus; source: E. coli BL21-Gold, purified (glutathione-agarose, TEV cleavage, Mono Q or Mono S, S200)
T1 sequence (looked up): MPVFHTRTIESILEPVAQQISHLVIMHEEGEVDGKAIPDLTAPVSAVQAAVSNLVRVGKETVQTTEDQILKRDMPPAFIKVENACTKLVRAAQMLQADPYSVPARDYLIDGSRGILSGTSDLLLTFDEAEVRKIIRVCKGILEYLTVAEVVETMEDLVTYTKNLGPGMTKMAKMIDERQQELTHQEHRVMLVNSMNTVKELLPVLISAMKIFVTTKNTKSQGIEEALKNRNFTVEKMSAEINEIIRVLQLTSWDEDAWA
As to the kind of experiment: ITC; vinculin D1 injected into αT-catenin or αE-catenin fragment (or αT-catenin head–β-catenin complex) in the cell; 25 °C; 20 mM Hepes pH 8.0, 150 mM NaCl, 1 mM TCEP. For orientation: ITC needs no label: the signal is the heat of the interaction.

The target in assay [1] is T2, αT-catenin N1-N2 (aa 1–259) (Mus musculus, UniProt Q65CL1 1-259).
T2 construct: αT-catenin, Mus musculus, N1-N2, aa 1-259; in pGEX-TEV; also called αT-catenin WT N1-N2; αT-catenin N1-N2 (1–259); source: E. coli BL21-Gold, purified (glutathione-agarose, TEV cleavage, Mono Q or Mono S, S200)
T2 sequence (looked up): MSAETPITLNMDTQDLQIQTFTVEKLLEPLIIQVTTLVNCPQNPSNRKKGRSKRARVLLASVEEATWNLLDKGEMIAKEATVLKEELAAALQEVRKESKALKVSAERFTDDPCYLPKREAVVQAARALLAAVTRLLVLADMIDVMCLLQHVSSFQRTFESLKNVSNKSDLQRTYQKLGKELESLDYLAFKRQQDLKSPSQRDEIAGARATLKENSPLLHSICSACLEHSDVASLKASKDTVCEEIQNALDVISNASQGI
As to the kind of experiment: ITC; β-catenin (110-150 μM) or β-catenin–Ncad_(cyto) complex (103-158 μM) injected into αT-catenin fragment in the cell; 25 °C; 20 mM Hepes pH 8.0, 150 mM NaCl, 1 mM TCEP.

The target of assay [2] is T3, αT-catenin head region (aa 1–659) (Mus musculus, UniProt Q65CL1 1-659).
T3 construct: αT-catenin, Mus musculus, head region (N- and M-domains), aa 1-659; in pGEX-TEV; also called αT-catenin head (1–659); αT-catenin N1-M3 (aa 1–659); source: E. coli BL21-Gold, purified (glutathione-agarose, TEV cleavage, Mono Q or Mono S, S200)
T3 sequence (looked up): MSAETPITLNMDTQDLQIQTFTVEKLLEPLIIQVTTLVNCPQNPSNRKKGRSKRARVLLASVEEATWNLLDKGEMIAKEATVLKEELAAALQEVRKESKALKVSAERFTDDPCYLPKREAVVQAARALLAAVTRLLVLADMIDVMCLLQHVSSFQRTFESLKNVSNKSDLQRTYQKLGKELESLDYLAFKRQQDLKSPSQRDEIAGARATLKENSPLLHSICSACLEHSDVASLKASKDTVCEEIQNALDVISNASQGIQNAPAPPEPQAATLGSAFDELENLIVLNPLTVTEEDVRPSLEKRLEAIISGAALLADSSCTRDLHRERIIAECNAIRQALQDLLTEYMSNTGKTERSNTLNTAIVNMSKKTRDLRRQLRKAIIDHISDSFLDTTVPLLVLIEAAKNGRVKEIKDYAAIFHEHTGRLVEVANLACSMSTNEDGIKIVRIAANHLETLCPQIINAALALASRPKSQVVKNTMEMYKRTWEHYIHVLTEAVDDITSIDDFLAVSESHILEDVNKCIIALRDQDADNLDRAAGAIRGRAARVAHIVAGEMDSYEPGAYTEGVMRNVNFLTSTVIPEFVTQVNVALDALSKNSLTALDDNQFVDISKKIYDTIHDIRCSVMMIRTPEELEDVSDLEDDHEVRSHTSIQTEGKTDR
The assay is described as above.

B1: αE-catenin M1-M2 (aa 273–510) (domain or fragment, Mus musculus, UniProt P26231 273-510, looked up)
chain: GSGGELAYALNNFDKQIIVDPLSFSEERFRPSLEERLESIISGAALMADSSCTRDDRRERIVAECNAVRQALQDLLSEYMGNAGRKERSDALNSAIDKMTKKTRDLRRQLRKAVMDHVSDSFLETNVPLLVLIEAAKNGNEKEVKEYAQVFREHANKLIEVANLACSISNNEEGVKLVRMSASQLEALCPQVINAALALAAKPQSKLAQENMDLFKEQWEKQVRVLTDAVDDITSIDD
notes: αE-catenin, Mus musculus, M1-M2, aa 273-510; in pGEX-TEV; also called αE-catenin M1-M2 (273–510); source: E. coli BL21-Gold, purified (glutathione-agarose, TEV cleavage, Mono Q or Mono S, S200)
One may read the Kd as the constant that tells how readily two partners part at equilibrium. Higher therefore signals weaker binding. Take B1: in the assay with vinculin D1 (aa 1–259), the Kd came to 31.9 ± 9.1 nM.

B2: β-catenin–N-cadherin cytoplasmic tail complex (complex)
chain 1: MATQADLMELDMAMEPDRKAAVSHWQQQSYLDSGIHSGATTTAPSLSGKGNPEEEDVDTSQVLYEWEQGFSQSFTQEQVADIDGQYAMTRAQRVRAAMFPETLDEGMQIPSTQFDAAHPTNVQRLAEPSQMLKHAVVNLINYQDDAELATRAIPELTKLLNDEDQVVVNKAAVMVHQLSKKEASRHAIMRSPQMVSAIVRTMQNTNDVETARCTAGTLHNLSHHREGLLAIFKSGGIPALVKMLGSPVDSVLFYAITTLHNLLLHQEGAKMAVRLAGGLQKMVALLNKTNVKFLAITTDCLQILAYGNQESKLIILASGGPQALVNIMRTYTYEKLLWTTSRVLKVLSVCSSNKPAIVEAGGMQALGLHLTDPSQRLVQNCLWTLRNLSDAATKQEGMEGLLGTLVQLLGSDDINVVTCAAGILSNLTCNNYKNKMMVCQVGGIEALVRTVLRAGDREDITEPAICALRHLTSRHQEAEMAQNAVRLHYGLPVVVKLLHPPSHWPLIKATVGLIRNLALCPANHAPLREQGAIPRLVQLLVRAHQDTQRRTSMGGTQQQFVEGVRMEEIVEGCTGALHILARDVHNRIVIRGLNTIPLFVQLLYSPIENIQRVAAGVLCELAQDKEAAEAIEAEGATAPLTELLHSRNEGVATYAAAVLFRMSEDKPQDYKKRLSVELTSSLFRTEPMAWNETADLGLDIGAQGEALGYRQDDPSYRSFHSGGYGQDALGMDPMMEHEMGGHHPGADYPVDGLPDLGHAQDLMDGLPPGDSNQLAWFDTDL
chain 2: MKRRDKERQAKQLLIDPEDDVRDNILKYDEEGGGEEDQDYDLSQLQQPDTVEPDAIKPVGIRRLDERPIHAEPQYPVRSAAPHPGDIGDFINEGLKAADNDPTAPPYDSLLVFDYEGSGSTAGSLSSLNSSSSGGDQDYDYLNDWGPRFKKLADMYGGGDD
notes: β-catenin, Mus musculus, full length; N-cadherin cytoplasmic tail (Ncad_(cyto)); the methods name no plasmid for the N-cadherin tail; also called β-catenin–Ncad_(cyto); β-cat–Ncad_(cyto); source: β-catenin: E. coli BL21-Gold, purified
Consider B2, for which the dH was -18.9 ± 1 kcal/mol in assay [1] and -27 ± 0.2 kcal/mol in assay [2].
